# From the RNAGym collection of RNA variant scans (doi:10.1073/pnas.2313332121)
# B1: TPR t1 (parent)
# chain: GACCAAUCUGCCCUCAGAGCUCGAGAACAUCUUCGGAUGCAGAGGAGGCAGGCUUCGGUGGCGCGAUAGCGCCAACGUCCUCAACCUCCAAUGCAUCCCACCACAUGAUGAUGCCUGAAGAGCCUUGGUUUUUUG
# Variants of: B1
# Experiment: polymerase ribozyme fitness, log enrichment relative to wild type (log ratio); higher = more active; in vitro selection for triplet polymerase activity
# Method in brief: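 Mutant libraries of both subunits of a heterodimeric triplet polymerase ribozyme were PCR-built, transcribed, and selected once in triplicate, with frozen incubation at −7 °C and capture of gel-excised extended constructs on streptavidin beads before RT-PCR. Illumina sequencing of input and output libraries was filtered to genotypes with ≥10 input reads and ≥1 read per output. Fitness is the logarithm of genotype enrichment over wild-type enrichment, using inverse-variance-weighted replicate averages. The logarithm is base 2.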
row,Variant,polymerase ribozyme fitness (log ratio)
1,A46G U55G,0.201
2,G47U G48U C79U,-2.83
3,G47U C53A C114A,-2.64
4,G45U C56U G122U U129C,-1.59
5,G47A C64U G117U,-4.27
6,A46U G63C U112C G117C A121U,-3.75
7,G47C C56G C72G C82U C97U U112A,-2.21
8,A46U A111C C124G U131A U132C,-0.582
9,G45A U55A,0.00657
10,G45U C123U,-0.952
11,G47A U78C C88A C97A U106A,-5.69
12,A46G G57A C73U A83G U112C,-0.119
13,A46U C115U,-2.18
14,G47U C73G C82U,-2.22
15,G47A G51A G71U C98U A105U U112G,-7.71
16,G47U G77U,-2.07
17,G47U G77A,-2.15
18,A46U U78C G113A,-2.45
19,G45C C86G C102U G120U,-7.48
20,G47U C88G U96A U112A,-6.98
21,A46U G69U C115A,-0.295
22,G47U C123A,-0.877
23,A46C C86U A95G C114G,-3.71
24,A46C G47A C53A G60A C73G,-1.61

row,Variant,polymerase ribozyme fitness (log ratio)
1,G47U A95C G128C,-4.33
2,A46U C49U C72A A121C,0.996
3,G45C U92A,-3.97
4,A46C U87A C123U U132A,1.86
5,G47U G48U U59A C79U,-3.11
6,A46U U55A G69A U125A,-4.29
7,G47U G61U G110A,-3.87
8,G45C G47A,-3.52
9,G47U G69U,-0.915
10,G45U C72U G120A,-0.418
11,A46U C64U A90U U96A U106A U131A,-3.76
12,G45U G48A G69U,-0.269
13,A46G C53A G135U,-1.55
14,G45U A91C,-2.07
15,G47C C72G,-2.9
16,G45U G71A,-2.09
17,G47A U96G G110A,-3.19
18,G45A G71A G113A C124U,-2.34
19,G47U A90U G117C,-4.37
20,A46C C49U A83U,-4.1
21,G47C C64A C104U,-7.34
22,A46C C53A G77U,-0.585
23,G47C G117A,-2.73
24,G47U C49G C70U U87C A100C,-3.16

row,Variant,polymerase ribozyme fitness (log ratio)
1,A46U A91G C123G,-1.65
2,G45C C114A,-2.66
3,A46G C73U U87A A91C G113A,-2.54
4,G47U G61C U126G,-4.45
5,A46U G61A,0.101
6,G45U C64U,-0.713
7,A46U C102U,-4.01
8,G45U G61C,-2.72
9,G45U G61A,-2.11
10,G45A G120C,0.183
11,G47U G117U,-2.78
12,A46U A74U A91G,-3.52
13,G47C G113C,-3.85
14,G47C G113U,-4.11
15,A46C C70U C101U,-1.31
16,A46U A103C C115G,-6.95
17,A46U C70G,-4.75
18,A46C G48A,-1.9
19,G47U C72G U81A,-3.46
20,G47U C114U,-3.33
21,G47U C114A,-2.77
22,A46C C53U U54G G71U G120U,-0.575
23,G47U G110U,-3.1
24,G47U G110A,-2.29

row,Variant,polymerase ribozyme fitness (log ratio)
1,A46U G117A,-2.21
2,G47U G51U C73U,-6.37
3,G45U G47U G60A C98G,-7.59
4,G47C U112G C115U U130A,-5.2
5,G47U G71A U87A,-4.27
6,G47A G60A C124G U133A,1.3
7,G45U C64U U81A,-2.88
8,G45A U81G,-3.71
9,G45C G47U A50G G57U,-3.62
10,G47A A50G C115A,-1.8
11,A46G G113U,-2.95
12,A46U C56A,-1.15
13,A46U G48A,-2.28
14,G45U U78G C88U,-1.1
15,G45U G93C,-0.927
16,G45A G61A A74U,-1.29
17,A46G A90G C101U U106A,-0.372
18,A46C G47A A50G C97A A121G C124G,-5.64
19,A46G G47C U96A,-3.35
20,G47A A50U C56A G69U G77C,-1.54
21,A46U G110U G120C G122A,-5.9
22,G45A U92A,-3.38
23,G47A C124U,0.0616
24,G45U G51A G52U,-4.66

row,Variant,polymerase ribozyme fitness (log ratio)
1,A46U C82U,-1.14
2,G47A A75G U96C,-0.307
3,A46U C99U,-4.49
4,G47A G135U,-2.25
5,G47U A119U,-1.82
6,G45U C53A C72U C89G,-1.72
7,A46U A66C C123G C124A,0.0849
8,G45C C49A C76U C102A,-3.88
9,G47A G51C G77C C80U U87C C124G U131G,-1.89
10,A46G A74C U133A,-0.745
11,G47A G71U C123A,-0.967
12,G45A G61U C70U G110U U125C,-3.2
13,G47C G48A C86U A90U,-2.46
14,A46G G47U G120U U132A,-1.09
15,A46U U131C,-1.72
16,A46C C49U A121U,0.936
17,G45U G93U A100C C104A,-6.03
18,A46G C64U,-0.426
19,G47C U55G G71U U106A U129A G135C,-2.24
20,G45C C72A,-0.797
21,G45A G107A A121C,-6.43
22,G47A G120A U126A,-1.73
23,G47A C70U,-1.86
24,A46G G60U,-0.448

row,Variant,polymerase ribozyme fitness (log ratio)
1,A46C U87A A91C U96A,-2.01
2,G47U G93U,-2.97
3,A46G U78A U112G,0.172
4,G47A C73A U126A,-2.35
5,A46U G48A C79G C82U G120A C123A,-3.09
6,G47A G48C A100U U112A,-0.897
7,G45U C53A G61C,-5.95
8,A46U G69U,-0.372
9,A46U G69A,-3.54
10,A46U C64U C99U,-4.36
11,G47U C72U U78C G113C,-3.65
12,G45U A50G,-1.25
13,A46C G48A C101U G110C,-6.49
14,G47A C76G A90G,-0.228
15,G47C C123G,-1.31
16,G45U C73U G110A G122A G128C,-6.61
17,G47U A95C U96A,-4.33
18,G45C C115A U130C,-2.49
19,G45C C70U A83C,-1.86
20,G45C U55C A119U,-2.39
21,G45C G51A G63A U78A C123G,-4.51
22,G47C C89U C124G,-0.507
23,G47C U125A,-2.59
24,G47C G58A,-1.77

row,Variant,polymerase ribozyme fitness (log ratio)
1,G45U C56G G77A C101U U112C,0.372
2,G47A C49A U132A,-1.53
3,G47A U133A,-1.33
4,A46G A103U U125A,-5.23
5,A46G C124U,0.675
6,G45U U106A U129C,-1.68
7,A46U C76G,-1.01
8,A46U C79U U96A C115U C123G U132A,-2.94
9,G47A G52A G120A,-0.716
10,G45U A46C G127C,-2.82
11,A46G C72G C85G,-4.41
12,G47A A91C G117U U133G,-4.6
13,A46C C56G C72G U87A A100U,-1.12
14,G47C U55G G63A C104U,-3.2
15,G45U U112A,0.359
16,G47U C70U C82G G120U C124G G127A,-0.105
17,A46G G69U,0.473
18,G47U G61C A111C,-2.97
19,A46C G57A C62G A121G,-1.34
20,G47C C49G,-2.19
21,A46U C62G C88A C124A,-4.36
22,A46U G77C,-1.54
23,G45U A50U C114A G135A,-5.32
